From patent publication US20230140293A1

Legend:
[1] = target: CH505 transmitted/founder (TF) gp120 (HIV-1); test: ELISA, gp120 on plate
CH505 M5 gp120 (HIV-1) = test: ELISA, gp120 on plate
[2] = target: CH505 w020.14 gp120 (HIV-1); test: ELISA, gp120 on plate
CH505 M11 gp120 (HIV-1) = test: ELISA, gp120 on plate
[3] = target: CH505 w030.28 gp120 (HIV-1); test: ELISA, gp120 on plate
[4] = target: CH0505TF.gly3.461 Env, pseudotyped virus produced in 293S GnTI- cells (HIV-1); test: cell-based or functional assay
[5] = target: CH0505TF Env, Env-pseudotyped virus produced in 293T cells (HIV-1); test: cell-based or functional assay
[6] = target: HIV-1 426c.TM (N276D/N460D/N463D) Env on Env-pseudotyped virus produced in 293s/GnTI-/- cells (Man5-enrichment) (HIV-1); test: cell-based or functional assay
[7] = target: CH0505TF.gly4 Env, Env-pseudotyped virus produced in 293T cells (HIV-1); test: cell-based or functional assay
[8] = target: HIV-1 Env 426c.TM (N276D.N460D.N463D), Env-pseudotyped virus produced in 293S GnTI- cells (Man5-enriched) (HIV-1 clade C strain 426c); test: cell-based or functional assay
[9] = target: HIV-1 Env 426c.SM (N276D), Env-pseudotyped virus produced in 293T cells (HIV-1 clade C strain 426c); test: cell-based or functional assay
[10] = target: CH0505TF.gly3.276 Env, Env-pseudotyped virus produced in 293T cells (HIV-1); test: cell-based or functional assay
[11] = target: HIV-1 Env 426c, Env-pseudotyped virus produced in 293S GnTI- cells (Man5-enriched) (HIV-1 clade C strain 426c); test: cell-based or functional assay
[12] = target: HIV-1 426c.DM (N460D/N463D) Env on Env-pseudotyped virus produced in 293s/GnTI-/- cells (Man5-enrichment) (HIV-1); test: cell-based or functional assay
[13] = target: HIV-1 Env 426c.DM (N460D.N463D), Env-pseudotyped virus produced in 293S GnTI- cells (Man5-enriched) (HIV-1 clade C strain 426c); test: cell-based or functional assay
[14] = target: HIV-1 426c.SM (N276D) Env on Env-pseudotyped virus produced in 293T cells (HIV-1); test: cell-based or functional assay
[15] = target: CH0505TF.G458Y Env, Env-pseudotyped virus produced in 293T cells (HIV-1); test: cell-based or functional assay
[16] = target: CH0505TF.G458Y Env, pseudotyped virus produced in 293S GnTI- cells (HIV-1); test: cell-based or functional assay
[17] = target: CH0505TF Env, pseudotyped virus produced in 293S GnTI- cells (HIV-1); test: cell-based or functional assay
[18] = target: CH0505TF.gly3.197 Env, Env-pseudotyped virus produced in 293T cells (HIV-1); test: cell-based or functional assay
[19] = target: CH0505.w4.3 Env, Env-pseudotyped virus produced in 293T cells (HIV-1); test: cell-based or functional assay
[20] = target: HIV-1 Env 426c, Env-pseudotyped virus produced in 293T cells (HIV-1 clade C strain 426c); test: cell-based or functional assay
[21] = target: CH0505TF.gly3.197 Env, pseudotyped virus produced in 293S GnTI- cells (HIV-1); test: cell-based or functional assay
[22] = target: HIV-1 Env 426c.TM4 (S278R.G471S.N460D.N463D), Env-pseudotyped virus produced in 293S GnTI- cells (Man5-enriched) (HIV-1 clade C strain 426c); test: cell-based or functional assay
[23] = target: HIV-1 clade C strain 426c Env on Env-pseudotyped virus produced in 293T cells (HIV-1); test: cell-based or functional assay
[24] = target: CH0505TF.gly3.461 Env, Env-pseudotyped virus produced in 293T cells (HIV-1); test: cell-based or functional assay
[25] = target: HIV-1 Env 426c.TM (N276D.N460D.N463D), Env-pseudotyped virus produced in 293T cells (HIV-1 clade C strain 426c); test: cell-based or functional assay
[26] = target: CH0505TF.gly3.276 Env, pseudotyped virus produced in 293S GnTI- cells (HIV-1); test: cell-based or functional assay
[27] = target: HIV-1 Env 426c.DM (N460D.N463D), Env-pseudotyped virus produced in 293T cells (HIV-1 clade C strain 426c); test: cell-based or functional assay
[28] = target: HIV-1 426c.TM (N276D/N460D/N463D) Env on Env-pseudotyped virus produced in 293T cells (HIV-1); test: cell-based or functional assay
[29] = target: HIV-1 clade C strain 426c Env on Env-pseudotyped virus produced in 293s/GnTI-/- cells (Man5-enrichment) (HIV-1); test: cell-based or functional assay
[30] = target: HIV-1 426c.SM (N276D) Env on Env-pseudotyped virus produced in 293s/GnTI-/- cells (Man5-enrichment) (HIV-1); test: cell-based or functional assay
[31] = target: HIV-1 Env 426c.SM (N276D), Env-pseudotyped virus produced in 293S GnTI- cells (Man5-enriched) (HIV-1 clade C strain 426c); test: cell-based or functional assay
[32] = target: HIV-1 426c.DM (N460D/N463D) Env on Env-pseudotyped virus produced in 293T cells (HIV-1); test: cell-based or functional assay
[33] = target: CH0505TF.gly4 Env, pseudotyped virus produced in 293S GnTI- cells (HIV-1); test: cell-based or functional assay
[34] = target: HIV-1 Env 426c.TM4 (S278R.G471S.N460D.N463D), Env-pseudotyped virus produced in 293T cells (HIV-1 clade C strain 426c); test: cell-based or functional assay

Substance: CH103 lineage intermediate ancestor IA8 (antibody)
- log AUC [1]: 5.5 log AUC
- log AUC (CH505 M5 gp120 (HIV-1)): 0.6 log AUC
- log AUC [2]: 3.4 log AUC
- log AUC (CH505 M11 gp120 (HIV-1)): 6.2 log AUC
- log AUC [3]: 1.6 log AUC

Substance: IgG1b12 (antibody)
- IC50 (µg/ml) in TZM-bl [4]: 0.02 µg/mL
- IC50 (µg/ml) in TZM-bl [5]: 0.98 µg/mL
- ID50/IC50 in TZM-bl [6]: > 25 µg/mL
- IC50 (µg/ml) in TZM-bl [7]: 0.004 µg/mL
- IC50 (µg/ml) in TZM-bl [8]: > 25 µg/mL
- IC50 (µg/ml) in TZM-bl [9]: > 25 µg/mL
- IC50 (µg/ml) in TZM-bl [10]: 0.007 µg/mL
- IC50 (µg/ml) in TZM-bl [11]: > 25 µg/mL
- ID50/IC50 in TZM-bl [12]: > 25 µg/mL
- IC50 (µg/ml) in TZM-bl [13]: > 25 µg/mL
- ID50/IC50 in TZM-bl [14]: > 25 µg/mL
- IC50 (µg/ml) in TZM-bl [15]: 0.1 µg/mL
- IC50 (µg/ml) in TZM-bl [16]: 0.22 µg/mL
- IC50 (µg/ml) in TZM-bl [17]: 0.61 µg/mL
- IC50 (µg/ml) in TZM-bl [18]: 0.68 µg/mL
- IC50 (µg/ml) in TZM-bl [19]: < 0.02 µg/mL
- IC50 (µg/ml) in TZM-bl [20]: > 25 µg/mL
- IC50 (µg/ml) in TZM-bl [21]: 0.26 µg/mL
- IC50 (µg/ml) in TZM-bl [22]: > 25 µg/mL
- ID50/IC50 in TZM-bl [23]: > 25 µg/mL
- IC50 (µg/ml) in TZM-bl [24]: 0.011 µg/mL
- IC50 (µg/ml) in TZM-bl [25]: > 25 µg/mL
- IC50 (µg/ml) in TZM-bl [26]: 0.01 µg/mL
- IC50 (µg/ml) in TZM-bl [27]: > 25 µg/mL
- ID50/IC50 in TZM-bl [28]: > 25 µg/mL
- ID50/IC50 in TZM-bl [29]: > 25 µg/mL
- ID50/IC50 in TZM-bl [30]: > 25 µg/mL
- IC50 (µg/ml) in TZM-bl [31]: > 25 µg/mL
- ID50/IC50 in TZM-bl [32]: > 25 µg/mL
- IC50 (µg/ml) in TZM-bl [33]: 0.001 µg/mL
- IC50 (µg/ml) in TZM-bl [34]: > 25 µg/mL
